Reference: patent US20080176953A1, “Methods and compositions for treatment of ocular neovascularization and neural injury” (Allergan, Inc., priority 2000, published 2008)

Key:
photoreceptors = settings: intravitreal injection of purified NGF; cited from earlier work
brain neurons in culture = settings: cited from earlier work
retinoblastoma cells = settings: cited from earlier work
[1] = system: "wet" age-related macular degeneration (ARMD); experiment: Photodynamic therapy (verteporfin) combined with intravenous PEDF in a patient, Example 1; type: in vivo
Experimental: The day of scheduled PDT treatment, the patient is administered 6 mg/M^2 of verteporfin. […] The treatment requires irradiation of the […].

| Molecule | survival of photoreceptors (photoreceptors) | life of brain neurons in culture (brain neurons in culture) | protection against acute neurotoxic insult (brain neurons in culture; e.g., glutamate toxicity) | differentiation of the retinoblastoma cells (retinoblastoma cells) | activity after heat incubation (retinoblastoma cells; incubation of PEDF at 75° C.) | elaboration of neuron-like processes (retinoblastoma cells; undifferentiated retinoblastoma cells) | visual acuity ([1]; 4 and 12 weeks following combined PDT and PEDF treatment) | renewed neovascularization ([1]; 12 weeks following PDT treatment) | optic nerve axon loss ([1]; after PDT with irradiation of the optic nerve) | Fluorescein angiography, leakage in the treated tissue ([1]; after one week and throughout the monitoring period) | visual inspection of the retina (affected areas) ([1]; one week following PDT, continuing through 12 week monitoring, intravenous PEDF every two days, verteporfin 6 mg/M^2) |
| --- | --- | --- | --- | --- | --- | --- | --- | --- | --- | --- | --- |
| NGF: polypeptide known to have neuroprotective and neurotrophic effects | Increased survival of photoreceptors |  |  |  |  |  |  |  |  |  |  |
| PEDF: polypeptide originally isolated from cultured fetal human retinal pigment epithelial cells, approximate molecular weight 50 kDa (protein, UniProt P36955 20-418, looked up) Pigment epithelium-derived …: QNPASPPEEGSPDPDSTGALVEEEDPFFKVPVNKLAAAVSNFGYDLYRVRSSTSPTTNVLLSPLSVATALSALSLGAEQRTESIIHRALYYDLISSPDIHGTYKELLDTVTAPQKNLKSASRIVFEKKLRIKSSFVAPLEKSYGTRPRVLTGNPRLDLQEINNWVQAQMKGKLARSTKEIPDEISILLLGVAHFKGQWVTKFDSRKTSLEDFYLDEERTVRVPMMSDPKAVLRYGLDSDLSCKIAQLPLTGSMSIIFFLPLKVTQNLTLIEESLTSEFIHDIDRELKTVQAVLTVPKLKLSYEGEVTKSLQEMKLQSLFDSPDFSKITGKPIKLTQVEHRAGFEWNEDGAGTTPSPGLQPAHLTFPLDYHLNQPFIFVLRDTDTGALLFIGKILDPRGP |  | prolongs the life | protects neurons | induces differentiation | does not prevent PEDF from differentiating retinoblastoma cells | stimulate the elaboration of neuron-like processes | no discernable loss of vision | No evidence of renewed neovascularization | no evidence of optic nerve axon loss | minimal leakage | healthy with no whitening |
